Results on two molecules are retold here after publication PMC5655547, “A General Strategy for Discovery of Inhibitors and Activators of RING and U-box E3 Ligases with Ubiquitin Variants” (Molecular Cell, 2017).

By Kd is commonly meant the constant that tells how readily two partners part at equilibrium. Read a low Kd as a tighter complex. One may read the stoichiometry N as a count of units in the complex or per binding partner.

The target in data set [1] is T1, UbcH5B S22R C85K-Ub (stable conjugate) (UniProt P62837 1-147; P0CG48 1-76, S22R | C85K, stably conjugated to Ub (C85K-Ub)).
T1 construct: UbcH5B with S22R and C85K; ubiquitin; mimic of UbcH5B~Ub; also called UbcH5B C85K S22R–Ub; source: made from purified Arabidopsis Uba1, UbcH5B C85K S22R and His-GST-Ub; purified (Ni2+ agarose, TEV cleavage, Source 15S, Superdex 75)
Briefly: SPR; Biacore T200, CM-5 chip, 25°C; GST-tagged E3 captured on anti-GST (1,000-2,000 RU); analyte in 25 mM Tris-HCl pH 7.6, 150 mM NaCl, 0.1 mg/ml BSA, 1 mM DTT, 0.005% Tween-20; steady-state affinity; GST alone subtracted. Particulars: both partners purified.

Data set [2] concerns the molecule itself. Briefly: crystal structure; XR and UbV.XR mixed 1:1.2; sitting drop, 0.1 M NaHEPES pH 7.5, 1.4 M tri-Na citrate; 1.57 Å.

B1: GST-tagged RING domain of XIAP (XR, residues 434-C) (domain or fragment, UniProt P98170 434-497, looked up)
chain: EISTEEQLRRLQEEKLCKICMDRNIAIVFVPCGHLVTCKQCAEAVDKCPMCYTVITFKQKIFMS
notes: XIAP RING domain, residues 434 to the C terminus; also called GST-XR; HisGST-XR; source: E. coli BL21(λDE3) GOLD, purified (glutathione agarose); not shown: His tag, N-terminal, kept
In data set [1], B1 showed a Kd of 12.2 µM.

B2: RING domain of XIAP (XR, residues 434-C), tag removed (domain or fragment, UniProt P98170 434-497, looked up)
chain: B1 chain
notes: XIAP RING domain, residues 434 to the C terminus; dimeric RING in the crystal; not shown: His-GST, N-terminal, cleaved
For the molecule B2, in data set [2], the “stoichiometry N” value turned out to be 2.
